Test: soluble on expression in E. coli; label from the status in PepcDB or PDB records

Sequence	soluble on expression in E. coli
MSWWCCIPKSKKGENPYSHGVSGIPPEKNIRLFSYSELRSATENFNRSNKIGRGGFGTVYKGTIRNGRDVAVKVLSAESRQGVREFLTEIDVITNVKHPNLVELIGCCVEGNNRILVYEYLENSSLDRALLGSNSEPANFTWSIRSAICIGIAKGLAYLHEEIASPIVHRDIKASNILLDKLYNPKIGDFGLAKLFPDNITHISTRVAGTTGYLAPEYAWHGQLTKRADIYSFGVLVLEIVSGKSSSRSLLADDKILLEKAWELHEVGKLKELVDSEMGDYPEEEVLRYIKTALFCTQAAAARRPSMPQVVTMLSKPIRINERELTAPGYIHDYNGTVSKATNSSNSRFKHSASDTSDMFSTVVPPTVSEISPR	not soluble
MDGAQPKTNFFERLIARLAREPDSAEDVLNLLRQAHEQEVFDADTLLRLEKVLDFSDLEVRDAMITRSRMNVLKENDSIERITAYVIDTAHSRFPVIGEDKDEVLGILHAKDLLKYMFNPEQFHLKSILRPAVFVPEGKSLTALLKEFREQRNHMAIVIDEYGGTSGLVTFEDIIEQIVGEIEDEFDEDDSADNIHAVSSERWRIHAATEIEDINTFFGTEYSSEEADTIGGLVIQELGHLPVRGEKVLIGGLQFTVARADNRRLHTLMATRVK	not soluble
MSLGDAADPREMRKTFIVPAIKPFDHYDFSRAKIACNLAWLVAKAFGTENVPEELQEPFYTDQYDQEHIKPPVVNLLLSAELYCRAGSLILKSDAAKPLLGHDAVIQALAQKGLYVTDQEKLVTERDLHKKPIQMSAHLAMIDTLMMAYTVEMVSIEKVIACAQQYSAFFQATDLPYDIEDAVMYWINKVNEHLKDIMEQEQKLKEHHTVEAPGGQKEGHHHHHH	soluble
MAHHHHHHMADSSCTSAAASVATAAPAFDFKPLQKSNVDLFATAPQVKKLTRREKDKMLRELEVKRAKPRAVDDSSGAAGKGRKGQPRQSDRSAAVAEVVRSATISSSSDDASGIGNKGEKKKSLFETVFDTKEVEKELAAQEDRRSRKRSKKQVLRHALHSNEEEDARTVFVGNLPNTIHKRDVEKIFKSCGSITAVRIRCQALEELDEQHQNMGRAVRVLRGEIKKDAKYSATAYVLFDSAKSIASALEKNGLIFHNRHIVVTTMDVESRAYPPETSIFLGNVAYNTTEEDVWSFFQEHGIADVKRVRLVRDRETGDCKGFGYVEFMHASSVQPAIETRGDKLNGRELRIVHVNKSKEVKVATKSRREKRRSEHAGGRGGAEACKRSRSGGDGDGGSRGSAGYSNFKKPRTDSDLPSWAGLTTNPRRKMPKDLRPLVEGKVEFKPRGPRAPVKRKTRNPEK	soluble
MGSDKIHHHHHHMEDILKYLQVHVPFRMLEGGFLDTVIAKGISPEIGFDCAILDATGKDRFREVADRFSDAGLRVTFHAPFMDLRPGAIDPRIREVSRERIQQVFDLVPLFRPRTIVCHPSFDSRYYVSSERKWLENSTLTWSTFVEQAAEFDTLLLLENVYEKEPRQFVHLLTALDSLRVRFCLDTGHCNAFSDAPLSSWLEELGTFLGEVHLHDNDGSRDAHLPIGEGNFPFMELFGFLKTKVNRPILTLEAHSADHLSRTLETLRKNRLFGLI	not soluble
MELLSIQNLTKVYKVPAGFLRKKNFFALKEVSLSIKQGDFLAIVGESGSGKSTLGKIILRLEKPTKGKVSFKGKDIFSMGKEYTRKVSAVFQDPRSSLNPRMKVEEILEEPLIVHRVKGRKERVLKVLQRVRLSEELLEKRPLQISGGQAQRVAIARALILEPELIVADEPTASLDVSVQEEILELFKELNSKGISFFFVTHDIRVVEKVANMVGVIYAGILMELGKKEEVLKNPLHPYTKFLLENVPVRHPKDRKPLKYLQEEEVSIPEEGCPFYPRCPEAMEECKKFIRRSEVNGRLLACNLY	soluble
MIGNFTIVDGHVHTFSSEEVSLKVLKSFNKIYNIEFENPGTGTIEDVLNNMKNEGIDYTVMANFAPVKILHANNKWTLEEARKHPNLIPLVSFHPDMDVSFTSLLEEYISDGAKGIKLHPMAQGFDPRDERLKGLYEFCNDIAFPIVFHCGRVANARLNSFSDVETLEPLIAMYENISFVLTHMADGNVKDVLRLSRTYKNVYFDTSIVISGYPPIRETNKPSWLDDSIPEGVINEIGAHRVVFGSDYPWGSPAWDLKRFMSMKLDDEEKKNILGENAMKLFLNTAYN	soluble
MGSDKIHHHHHHAQRVITASGKYITKNIKVTRFDQIYLKGSPTIEYTQSPGASKVQIAGSDNLVDLVECRVEGSTLIVNMKSRTNISYGKEGRLKILVSSPMLKSASLQGSGDIHLGSLKVEGLDVSLTGSGDIVAENITCNSDFSALLKGSGDIDVKGQLRAKSVNLNLQGSGDLKVAGVTGSEISAMLQGSGDLKVGSTNITSTVMAKLSGSGDMDVLDIRANSVSGQLDGSGDMTLSGSACNATLVLNRSGELSARKLDAENVTAHVNGSGEISCTATKTLETNIQGSGEISYKGNPSIRSTGKNHLNRL	not soluble
MLQKYSIIVLCCSAVLARVPVAKNCPTGWTWFLRSRGGWCMKVFTEALNQPSAEAKCKAAEAVLAGIQNKEEVAWMSKELTGTMWIGTKRTPPCMNSGVTKQCSQITSYYWTDGSTVGVQGFYWNSGEPNNQGGQGCAKLITSSSVLDDVACTTELTNGYVCGKIATF	not soluble
MVSSDVPKTQRALIFESYGGPLEIKQLPIPQPNEDELLVKMEYSGICHSDVHTWLGDFHYVSKCPMIGGHEGAGSVISVGSKVKNWQIGDKVGIKLVQGNCLNCEYCQTGHEPLCPHVWNIGVQKYGTFQEYATIRDVDAIKIPKSMNMAAAAPVLCGGVTAYKALKESEVKSGQIVAVTGAGGGLGSFAIQYARAMGMRVVAEDIVAHIREITDGGAHGVVNFAAAKVPMEKALEYVRKRGTVVFVGLAKDSKILVDTIPLIFNAVKIKGSIVGSRLDVNEAMDFVARGAVNVPLELVKLEDVAEVYTKMHDGKINSRVVVDFSL	not soluble
MRQRYLALLSLFASLPAMAISFQTRLESIEWKVEGDQFECRLTQPITDFGAGEFVRRAGEQATFRLKASYNMLGNGSATLLAAAAPWQPGRGDINLGSVRVSNGDIPFNTSQAQAGRLISGLMDGRSPLIRHYNRDGGQMEVRLLPVKFSKAFSDYQACTAKLLPMNFDQVKQAEVGFPGGGIELDANAKARLDNMVAYLKADPTVNRIELDGHSDNSGNRLTNRDLSRRRALAVMDYFKAQGIPEQQITLRFHGERYPLAPNTNNANRARNRRVNVHLERVAPDERPVPVASSASAAHTS	not soluble
MKRHIAMAAGALALALGAQAAHAGPTLDAVKKKGFVQCGLTDGVAGFSATNSKGEWEGMDVDICRAVAAAVFGDAGKFKGTALSTQQRFTALQSGEVDVLLRTVTLTQTRDTSLGLAAVAASFYDGQGVLVRKALGVKSAKELDEATICVQPGTTTELNLADWFRANGIKFTPVVIDKVTEVVRAFESGRCDAFTDDASQLAAVRATQVAKPDDFEILPERFSKEPLGPMVRQGDENWLGIVRWTLFALMEAEEYGITQQNVDEMLKSKNPNVLRILGVTPGAGKNMGLDEKWAYNAIKAVGNYSQIFERNVGKDSRLGLQRGVNALWSQGGAMYPWPIR	not soluble
MGSDKIHHHHHHMKRIRNISVVGMGAVGCAYGRKLYKLNPNNFKIIADDKRKEKLTKNGFLINGEKYDFKCVSPNENLGKDDLIIIAVKYNQLEEAIEEIRNYVGENTIILSFLNGIKSEEEIGKVYGMDKILYSYCVLESTRKGSEVYVSDGYKIVFGQKESDNKYEKIKAVRELFDDAEIDYEIPVDIIHSMWSKFMFNVGINPVSAILKANYGMLQKNKYARETMVSAMMEVINISQKASVNLKIEEINHWLAVLDECELHGKTSMCQDILMGRKTEIDMLSGEVCALGEKYGVDTPVNRTLFNMVKSIE	not soluble
MAHHHHHHMAAYVGSVPPATLTTLAQREVELSLLQFLRQYHPKVDELWRTHPDAEPMETAEEMCMDASDDCKSDHLPRLHRELHDSYVQGRFLFLGESTQGLYSSQPWLAFWALQAADMLDITEKLYEHVSPDALGNFILGCLQEVKKSGTSNDDDMRNNPMDMDEQQESVLLRNPVSIFDDDNDDGKRLVGFAGGQLAQIPHLAASYAALCSLCILPRTTYLRALPRAAIKRWLLSLRCKDGSFCMHTGGEADIRASYCVAVMTVLLQLNDVPAYTDGRDDTVLTEQTAAFVASCQTHEGGFACGLNASEAHGAYTQCGLAALILMRYPHLCKYAALRRWLSARQLKFEGGFNGRTNKLVDSCYSYWVGASHMLLRVGESYMRLLGQTETPRCLTAREALLLDHAQLIDTTSMCPMDDDAWRHAEEIHRQRTAHVEAYLHAPSHSTWKQQTATQSFLDEDVGDFYFNQRRLLLYVLSCCQDKEMGGLMDKPGCLNDAYHTCYSLSGMSTAQNLQYLPRSCTNETLMYATALRRGYIPNERDDYEIVLAVHNSNRGVGCGCYRSQERLSPLNPIFNICQSRVLAALRTWGVKSFIC	soluble
SASPSLERPEKGAGKSEFRNQKPKPENQDESELLTVPDGWKEPAFSKEDNPRGLLEESSFATLFPKYRGAYLKECWPLVQKALNEHHVNATLDLIEGSMTVCTTKKTFDPYIIIRARDLIKLLARSVSFEQAVRILQDDVACDIIKIGSLVRNKERFVKRRQRLIGPKGSTLKALELLTNCYIMVQGNTVSAIGPFSGLKEVRKVVLDTMKNIHPIYNIKSLMIKRELAKDSELRSQSWERFLPQFKHKNVNKRKEPKKKTVKKEYTPFPPPQPESQIDKELASGEYFLKANQKKRQKMEAIKAKQAEAISKRQEERNKAFIPPKEKPIVKPKEASTETKIDVASIKEKVKKAKNKKLGALTAEEIALKMEADEKKKKKKK	soluble
MAHHHHHHMRVASFCLPLHLLSFGAQARGCFRHSTGGSSSVFCAARPFRLSHTMAASACSSAVHLDNFRLLAAGHDATHAAPSSAPLTAPISFSLTFHFQRYDGADFESFISSLGVSVDFVADVASEQTTLTLLPLTPVSGPWARRDTAAANGAFLMAASASDSSTSSSDYAAGAPLDGAAGAAPGMMYQLRVYLSDFRALEKVQLKHLLQVSMMHVRLAHLGTSDGVGNSDSSDPRTEERSVAAWNVIWRVRRNPQNEQELIRTVLDPLA	not soluble
MGVEQILKRKTGVIVGEDVHNLFTYAKEHKFAIPAINVTSSSTAVAALEAARDSKSPIILQTSNGGAAYFAGKGISNEGQNASIKGAIAAAHYIRSIAPAYGIPVVLHSDHCAKKLLPWFDGMLEADEAYFKEHGEPLFSSHMLDLSEETDEENISTCVKYFKRMAAMDQWLEMEIGITGGEEDGVNNENADKEDLYTKPEQVYNVYKALHPISPNFSIAAAFGNCHGLYAGDIALRPEILAEHQKYTREQVGCKEEKPLFLVFHGGSGSTVQEFHTGIDNGVVKVNLDTDCQYAYLTGIRDYVLNKKDYIMSPVGNPEGPEKPNKKFFDPRVWVREGEKTMGAKITKSLETFRTTNTL	soluble
MGSDKIHHHHHHMRQVLQKDKRDVQLSKALSYLLRHTAVKEKLTIDSNGYTPLKELLSHNRLKTHKCTVDDIHRIVKENDKQRFHIKTLGADEEWICATQGHSIKSIQPSDEVLVPITEASQLPQELIHGTNLQSVIKIIESGAISPMSRNHVHLSPGMLHAKGVISGMRSSSNVYIFIDCHSPLFFQTLKMFRSLNNVYLSSSIPVELIQKVVVKGNLKDEEKLDTLRRILHERNIPLEKI	not soluble

— the DeepSol protein solubility set
